The record followed here is the supplement of paper PMC12764529.

± gives the half width of the 95% confidence interval.

Series [1] in a line: folding stability dG unfold from chymotrypsin proteolysis; higher = more stable. Summed up:
(§1)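 Unfolding free energy was derived, per protease or combined, against a sequence-predicted unfolded-state K50 and a shared folded-state K50, starting from K50 inferred by Bayesian fitting of sequencing counts. Digestion with trypsin and chymotrypsin was carried out on designed mini-proteins under 80 residues without cysteine in a PA-tagged cDNA display construct. Only designs with AlphaFold2 dimer inter-PAE above 15 were kept.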

Series [2] in a line: folding stability dG unfold (combined trypsin and chymotrypsin); higher = more stable. Summed up: as §1
Series [3] in a line: folding stability dG unfold from trypsin proteolysis; higher = more stable. Summed up:
as §1

“SAGMEKKTLTVTHPDGSEATVEVYKNPETGKYVTLVHYPETGKYEVFDDNGNLIATFGNGSAADAFKAISAG [r5_757_TrMRF]”: the entries for the “folding stability dG unfold” value in series [1], in series [2] and in series [3] were 1.8 ± 0.1 kcal/mol, 1.44 ± 0.13 kcal/mol and 0.375 ± 0.054 kcal/mol, respectively.
As for “SAGMETIEVPLPVEEIKEALDAGLSPEEIARLLAEETGEEVEIEVGGRKITITRNEDGELIVRIEVKPDSAG [r5_343_TrROS_Hall]”, the “folding stability dG unfold” value came out at 2.22 ± 0.091 kcal/mol in series [1], 2.36 ± 0.2 kcal/mol in series [2] and 2.51 ± 0.085 kcal/mol in series [3].
For “SAGMETVTVEVDGATITFVKNEDGTVTAIVTYPNGEVEIYNADGELIRRERLPNGLVVFEFTKEELEKLSAG [r5_457_TrROS_Hall]”, in that order: 2.09 ± 0.068 kcal/mol, 1.93 ± 0.14 kcal/mol and 1.19 ± 0.057 kcal/mol.
For “SAGMETVVTYDPSNGTVTTTTTVFAPDGTPLGSLSTTTPIGGGTITYTTITIDPETGTVTTTTTAYPGASAG [r5_34_JUSTAS]”, in that order: 4.49 ± 0.086 kcal/mol, 4.25 ± 0.11 kcal/mol and 2.77 ± 0.093 kcal/mol.
Take “SAGMEVEILGAEVDPETGVVKVVAVGRDPVTGVLVVDEITIKGDTVEIRREVYFPNTGKKAETTATIPLSAG [r5_150_TrMRF]”: the results for the “folding stability dG unfold” value in series [1], in series [2] and in series [3] were 1.43 ± 0.071 kcal/mol, 1.55 ± 0.12 kcal/mol and 1.66 ± 0.13 kcal/mol, respectively.
For “SAGMGIVEALRRELEAAGLDVRVSATVEPLPDLGYVLITVHVEVRNENGEWVPLGPLTILLPVEEAERLSAG [r5_413_TrMRF]”, in that order: 2.43 ± 0.07 kcal/mol, 2.55 ± 0.13 kcal/mol and 2.9 ± 0.12 kcal/mol.
The matching figures for “SAGMIATITITRPGTGSITLTVPVPVPSEEEARAYAEAVREALRAADPGPLEVSVEFERVPPVPPERLGSAG [r5_87_JUSTAS]”: 1.85 ± 0.036 kcal/mol, 1.75 ± 0.1 kcal/mol and 1.6 ± 0.038 kcal/mol.
With “SAGMIEINNVTPNYVMIKIWNPDNGKKWEIPIQYERDNGKPYSKDKALEEIKDIAKEFYPDFDIEVEPVSAG [r5_293_TrROS]”, the “folding stability dG unfold” value was 0.727 ± 0.14 kcal/mol in series [1], 0.41 ± 0.25 kcal/mol in series [2] and 0.0269 ± 0.15 kcal/mol in series [3].
In the case of “SAGMIKIEETDGKLKVTITLKADDPEEITVEMIKEELEKLGLEVAEIKITPEPNEDGQYTVTAEIVVDVSAG [r5_922_TrMRF]”, the “folding stability dG unfold” value was 3.06 ± 0.16 kcal/mol in series [1], 3.08 ± 0.23 kcal/mol in series [2] and 2.99 ± 0.39 kcal/mol in series [3].
For “SAGMIKVEVVEKDEKTKEWKVVETKTIPVKPGEKPTVEELAKKLKEKGYEVRIEKTKDGTLKIYVIKKKSAG [r5_269_TrROS_Hall]”, in that order: 4.08 ± 0.061 kcal/mol, 3.78 ± 0.16 kcal/mol and 3.33 ± 0.2 kcal/mol.
For “SAGMISPEEIAKRLKAGEPVEIYLPDPAEKEALLAELQKLLGLSEEELKEIFAKMKFTEIPATDPRLLASAG [r5_368_JUSTAS]”, in that order: 2.03 ± 0.058 kcal/mol, 1.67 ± 0.046 kcal/mol and 1.16 ± 0.045 kcal/mol.
Consider “SAGMISSVSSEPSTNTTTATIPETGKTITYNPETGTLTVTPPTGNPSVIPVETPEEAERAMEEVIAELSSAG [r5_467_JUSTAS]”, for which the “folding stability dG unfold” value is 0.228 ± 0.038 kcal/mol in series [1], 0.816 ± 0.079 kcal/mol in series [2] and 1.11 ± 0.041 kcal/mol in series [3].
The matching figures for “SAGMITISEEEARELGVPIGASEEEIKEALAARLREEGYKVEFPSVVKEKVDPKTGKVEYKIDINLKPLSAG [r5_23_JUSTAS]”: -0.104 ± 0.48 kcal/mol, 0.807 ± 0.18 kcal/mol and 1.3 ± 0.051 kcal/mol.
For “SAGMKEIKIKDAKIEVKKKKDGKKVKRITLKDGKEIEIKEDGSIIIRNKKTGKYIKLPKNMTIEELLKKSAG [r5_348_TrROS_Hall]”, in that order: 1.74 ± 0.029 kcal/mol, 1.48 ± 0.098 kcal/mol and 0.925 ± 0.09 kcal/mol.
The matching figures for “SAGMKEVTVSKDELEEILKKLPPNKTYKVTLYNPNGPTYEFTVTVENDTIKINEGPPNKSENLKVTLVSSAG [r5_85_JUSTAS]”: 2.32 ± 0.024 kcal/mol, 2 ± 0.051 kcal/mol and 1.53 ± 0.036 kcal/mol.
Turning to “SAGMKIKIVKIEKEEDGTIRVELEITDPNGNKYRVEAEIDLKDPNKIKIKVINEDTGEEFEIELTIKKPSAG [r5_345_TrROS_Hall]”, the “folding stability dG unfold” value in series [1] was found to be 5.19 ± 0.2 kcal/mol; in series [2], 5.24 ± 0.35 kcal/mol; in series [3], 3.6 ± 0.23 kcal/mol.
As for “SAGMKITISYDEAKGIATVTLYEERPVETPNGPVTLRRKVATVTIPYTSLEEAKKQAEEAAKALLEKLSSAG [r5_956_JUSTAS]”, the “folding stability dG unfold” value in series [1] was 5.036 ± 0.033 kcal/mol; in series [2] it was 5.06 ± 0.084 kcal/mol; in series [3] it was 5.11 ± 0.14 kcal/mol.
For “SAGMKITYKRPDGTPAEPIPEEEIKKLAEEKAKELYPNKPDATVTVTITIKTNNNEPLIITMTVTIKNESAG [r5_526_JUSTAS]”, in that order: 1.13 ± 0.18 kcal/mol, 1 ± 0.38 kcal/mol and 0.982 ± 0.054 kcal/mol.
For “SAGMKKVIELTIPVTGPEEVEELVAKLEEEEPAVPVERRPDPRLGAVRVVVEKKFPDSIVYITLTAAASAGG [r19_262_JUSTAS]”, in that order: 0.496 ± 0.071 kcal/mol, 0.677 ± 0.065 kcal/mol and 0.784 ± 0.042 kcal/mol.
For “SAGMKLELLLPAEEAVRLFGPDFDARDLARALASEGYVVESVEAEPFPNPEEGGLYLRVTFDVRPPDASAGG [r19_376_TrMRF]”, in that order: 1.4 ± 0.061 kcal/mol, 1.38 ± 0.045 kcal/mol and 1.37 ± 0.018 kcal/mol.
As to “SAGMKPGEKVKVTLTLTETRVEEVDGEKKVEKRTLTIEVTVEVSEEDREKALEEAEELARKLAEEGLIPSAG [r5_532_TrROS_Hall]”, the “folding stability dG unfold” value in series [1] came out at 1.24 ± 0.07 kcal/mol; in series [2], 1.31 ± 0.28 kcal/mol; in series [3], 1.21 ± 0.15 kcal/mol.
For “SAGMKPNETLPNAIIRIENSKGKVKEFTLPNVVSIEEIDEKNGIITLTLPNNKKITLKVPKNAKITIEGSAG [r5_762_TrMRF]”, the results for the “folding stability dG unfold” value in series [1], in series [2] and in series [3] were 3.5 ± 0.049 kcal/mol, 3.37 ± 0.049 kcal/mol and 3.04 ± 0.11 kcal/mol, respectively.
For “SAGMKTKTIEETITFTFPPGNPPDLEEIKEKLKSKGVKVLKVEMFEPPGDYYVVTAKVVKELEPSELLSSAG [r5_167_JUSTAS]”, in that order: 2.27 ± 0.039 kcal/mol, 1.84 ± 0.13 kcal/mol and 0.934 ± 0.072 kcal/mol.
For “SAGMKVILIIAPEEKIEEIFEEIKKIAEEHGLDLKLDKIEPLPEKGYLVIVTVKNPESDETTVILVLVPSAG [r5_41_TrMRF]”, in that order: 3.75 ± 0.077 kcal/mol, 3.55 ± 0.12 kcal/mol and 2.96 ± 0.096 kcal/mol.
As for “SAGMKVTTFTTPTRTVTVTLTPDGTVTVTVTDPSGNPTVTAPDGTPVASTTAPDGTTTFTLDPALFAAASAG [r5_457_JUSTAS]”, the “folding stability dG unfold” value in series [1] worked out at 0.965 ± 0.1 kcal/mol; in series [2] it was 0.896 ± 0.073 kcal/mol; in series [3], 0.717 ± 0.047 kcal/mol.
The matching figures for “SAGMKYTFKILVKADSPEEAIETAKKLVEKWLKENFPELPEGVKIKEIKVEPLPDDYYLVTITVEFDPESAG [r5_320_TrMRF]”: 5.51 ± 0.091 kcal/mol, 5.49 ± 0.1 kcal/mol and 4.2 ± 0.19 kcal/mol.
For “SAGMLRELLDNPDVKRLEIVIFIPEEDLSEEDRERARERARELAERLRELLRERGYDVEIEVRIVRLPPSAG [r5_408_TrROS_Hall]”, in that order: 3.22 ± 0.062 kcal/mol, 3.39 ± 0.088 kcal/mol and 3.5 ± 0.11 kcal/mol.
Consider “SAGMLRVDIEIPPAFRKMLKNAPPGETVMFELPIKIKIEYYQPDGGKPEPKEHEQPFPVQFMVVLPPDGSAG [r5_946_TrROS]”, for which the “folding stability dG unfold” value in series [1] was determined as 3.18 ± 0.12 kcal/mol; in series [2] it was 2.84 ± 0.2 kcal/mol; in series [3], 2.14 ± 0.16 kcal/mol.
“SAGMLVRVTLKYPDGKTIKIPFPYAKILSEETSNNETTFTIDSPESADKAVEAIKKEYPDIEVKVEPLESAG [r5_453_JUSTAS]”: the “folding stability dG unfold” value in series [1] was 2.46 ± 0.035 kcal/mol; in series [2], 2.23 ± 0.058 kcal/mol; in series [3], 1.67 ± 0.022 kcal/mol.
For “SAGMMKVRIKIEVTRVEYDEETGELKEETRTIEIPIEAESEEEAEELAKKLAEELPEEEVKIVEIEPLSAGG [r19_209_TrROS_Hall]”, the “folding stability dG unfold” value in series [1] came out at 1.42 ± 0.11 kcal/mol; in series [2], 1.22 ± 0.22 kcal/mol; in series [3], 1.1 ± 0.096 kcal/mol.
Consider “SAGMNLKIEVSVTPQEFELVEKDEEGNLIKPVKQKATVVTTTTTLPDGTVTTTRSLFLDGELVATSTGSAGG [r19_44_JUSTAS]”, for which the figures for the “folding stability dG unfold” value in series [1], in series [2] and in series [3] were 1.03 ± 0.044 kcal/mol, 0.972 ± 0.098 kcal/mol and 0.716 ± 0.015 kcal/mol, respectively.
For “SAGMNTITFEYKTKDHYVKIDVQVYPPNEGYIRISIEIYNKDGEPKKEVKITIPAPPGDPAVRDFLDQFSAG [r5_964_TrROS]”, the “folding stability dG unfold” value was found to be 2.74 ± 0.047 kcal/mol in series [1], 2.73 ± 0.35 kcal/mol in series [2] and 2.77 ± 0.32 kcal/mol in series [3].
For “SAGMPAETETTVTITTETIDEKGNLSTKTYTATVRTLPDGRVLVYLENELLLIDPATGEVVAREPNYKPSAG [r14_821_JUSTAS]”, the results for the “folding stability dG unfold” value in series [1], in series [2] and in series [3] were 2.264 ± 0.015 kcal/mol, 2.28 ± 0.051 kcal/mol and 2.3 ± 0.025 kcal/mol, respectively.
“SAGMPEIVKVKVKIKVNIPVFDKNGKLIGLIPKEYEFEIEAPYEEIKNIIESLPENAEVVEILEIENESAGG [r19_114_TrMRF]”: the “folding stability dG unfold” value in series [1] was determined as 2.29 ± 0.29 kcal/mol; in series [2] it was 3.29 ± 0.89 kcal/mol; in series [3], 4.27 ± 0.68 kcal/mol.
For “SAGMPEVKLLPKPDGSLVLVVVFEDKAIIIEFPPDGEGKIYIIDLKNNKITEIPFPSEDPLKAIKEALSSAG [r5_674_TrMRF]”, in that order: 3.99 ± 0.21 kcal/mol, 3.72 ± 0.27 kcal/mol and 2.35 ± 0.086 kcal/mol.
For “SAGMPIRVRLLVERPALDPETGEPVVERREVVLTLHPEEIASGIPVEELAKELEKAFPGAKVTVLEVSSAGG [r19_110_TrMRF]”, in that order: 3.77 ± 0.044 kcal/mol, 3.81 ± 0.047 kcal/mol and 3.88 ± 0.11 kcal/mol.
